Results on two substances are retold here after patent US20250340662A1.

Assay [1] has as its target CD44v6 on cultured cancer cells (BHT-101, ACT-1, A431) (human) (UniProt P16070). The assay is described as follows: LigandTracer, 177Lu-antibody on A431 cells.
Assay [2] has as its target T1, Human v6-peptide (human).
T1 sequence (peptide, N-terminal biotin): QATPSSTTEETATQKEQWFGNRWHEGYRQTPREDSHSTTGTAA
Description: SPR SCK, biotin-peptide on SA chip, antibody injected.

Assay [3] deals with Human CD44v6 iso4-Fc (human) (UniProt P16070). Description: SPR SCK, antibody captured via anti-kappa, CD44v6-Fc injected; apparent KD.
Sequence of Human CD44v6 iso4-Fc (human) (P16070 other isoform, or with tags, fused parts or gaps limits assumed): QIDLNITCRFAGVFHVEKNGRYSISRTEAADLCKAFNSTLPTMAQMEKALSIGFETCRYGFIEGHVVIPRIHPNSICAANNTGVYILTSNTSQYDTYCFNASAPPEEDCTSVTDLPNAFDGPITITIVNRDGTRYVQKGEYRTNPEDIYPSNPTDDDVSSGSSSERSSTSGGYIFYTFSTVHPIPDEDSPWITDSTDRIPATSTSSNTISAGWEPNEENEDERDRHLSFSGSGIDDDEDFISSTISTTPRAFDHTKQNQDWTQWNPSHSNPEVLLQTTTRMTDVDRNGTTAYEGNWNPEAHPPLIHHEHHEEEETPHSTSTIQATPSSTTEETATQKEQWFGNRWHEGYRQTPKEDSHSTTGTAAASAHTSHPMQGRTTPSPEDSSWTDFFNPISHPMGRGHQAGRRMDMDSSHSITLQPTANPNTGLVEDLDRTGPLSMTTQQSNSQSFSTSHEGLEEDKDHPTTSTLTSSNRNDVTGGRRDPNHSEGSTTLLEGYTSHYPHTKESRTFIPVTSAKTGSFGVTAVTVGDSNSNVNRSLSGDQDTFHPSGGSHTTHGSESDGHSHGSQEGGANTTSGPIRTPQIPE
For assay [4] the target is unchanged. Description: SPR SCK, antibody captured via anti-kappa, CD44v6-Fc injected.
The target in assay [5] is T1, Human v6-peptide (human). Description: SPR SCK, biotin-peptide on SA chip, antibody injected; apparent KD.
In assay [6] the target is FcyR1. Description: SPR. (SPR reads the build-up and loss of mass on a sensor chip optically.)
Sequence of FcyR1 (P12314 16-292): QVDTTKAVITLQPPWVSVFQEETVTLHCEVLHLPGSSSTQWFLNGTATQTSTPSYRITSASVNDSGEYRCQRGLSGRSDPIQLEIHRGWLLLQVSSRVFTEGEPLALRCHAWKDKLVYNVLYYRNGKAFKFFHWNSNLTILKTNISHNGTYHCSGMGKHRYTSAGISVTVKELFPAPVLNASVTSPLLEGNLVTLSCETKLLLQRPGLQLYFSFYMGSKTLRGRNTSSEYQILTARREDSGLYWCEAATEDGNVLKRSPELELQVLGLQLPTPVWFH

As for BIWA-4 IgG4 S228P (antibody), the results for the Kd in assay [1], in assay [3] and in assay [5] were 0.3 nM, 48 nM and 0.88 nM, respectively. Moreover, the koff in assay [2] is 0.00017 s⁻¹; in assay [4] it was 0.00031 s⁻¹. Also, the kon in assay [2] is 190000 M⁻¹ s⁻¹; in assay [4], 6500 M⁻¹ s⁻¹.
In assay [6], Herceptin (antibody) had a Kd of 0.18 nM.

Broadly, the koff is the rate constant with which the complex falls apart. One may read the kon as the rate constant with which the complex forms. The low end stands for slower complex formation, the high end for faster complex formation.
